Biological target: the molecule itself
Test: cross-linking

| Protein | binding result | stoichiometry N |
| --- | --- | --- |
| PrfA L140F (natural protein) MNAQAEEFKKYLETNGIKPKQFHKKELIFNQWDPQEYCIFLYDGITKLTSISENGTIMNLQYYKGAFVIMSGFIDTETSVGYYNLEVISEQATAYVIKINELKELLSKNLTHFFYVFQTLQKQVSYSLAKFNDFSINGKFGSICGQLLILTYVYGKETPDGIKITLDNLTMQELGYSSGIAHSSAVSRIISKLKQEKVIVYKNSCFYVQNLDYLKRYAPKLDEWFYLACPATWGKLN | binds |  |
| wild-type PrfA (positive regulatory factor A) (natural protein) MNAQAEEFKKYLETNGIKPKQFHKKELIFNQWDPQEYCIFLYDGITKLTSISENGTIMNLQYYKGAFVIMSGFIDTETSVGYYNLEVISEQATAYVIKINELKELLSKNLTHFFYVFQTLQKQVSYSLAKFNDFSINGKLGSICGQLLILTYVYGKETPDGIKITLDNLTMQELGYSSGIAHSSAVSRIISKLKQEKVIVYKNSCFYVQNLDYLKRYAPKLDEWFYLACPATWGKLN |  | 2 |
| PrfA Y63C (natural protein) MNAQAEEFKKYLETNGIKPKQFHKKELIFNQWDPQEYCIFLYDGITKLTSISENGTIMNLQYCKGAFVIMSGFIDTETSVGYYNLEVISEQATAYVIKINELKELLSKNLTHFFYVFQTLQKQVSYSLAKFNDFSINGKLGSICGQLLILTYVYGKETPDGIKITLDNLTMQELGYSSGIAHSSAVSRIISKLKQEKVIVYKNSCFYVQNLDYLKRYAPKLDEWFYLACPATWGKLN | binds |  |
